Data as given in patent US20220265772A1, “USES OF DAN FAMILY BMP ANTAGONISTS FOR INHIBITING OCULAR NEOVASCULARIZATION AND TREATING OCULAR CONDITIONS” (9636137 Canada Inc., priority 2019, published 2022).

Key:
mouse choroidal explants = test: Choroidal explant sprouting in culture; assay type: cell-based; details: P5 mouse choroidal explants exposed to serum and VEGF
Protocol: FIG. 1 is a panel with pictures, bar graphs, and graphs showing that Dand5 reduces VEGF-mediated sprouting angiogenesis in cultured endothelial cells. FIG. 1A: HUVECs grown in a fibrinogen gel were treated with VEGF to induce tube formation in the presence or absence of Dand5. […] FIG. 1B: HUVECs were plated to confluency and scratched to stimulate a wound in the presence or absence of Dand5. Scale bar, 100 μm. FIG. 1C: Quantification of tube formation in FIG. 1A n=3, *p<0.05, **p<0.01). FIG. 1E: Choroids were isolated from wild-type mice and cultured in vitro in the absence or presence of Dand5. […] FIG. 1F: Quantification of sprouting areas in choroidal sprouts (n=3, ***p<0.0001). […] FIG. 1H: HUVECs were cultured in the presence or absence of Dand5 and analyzed by immunofluorescence using antibodies against phospho-Histone 3 (PH3), a marker of cellular mitosis, and phalloidin and DAPI (nuclei). […] FIG. 1I: Quantification immunofluorescent staining of phospho-histone 3 positive cells. […] FIG. 1K: Quantification of immunofluorescent staining of cleaved caspase 3 (n=2, n.s.).
To evaluate the cellular mechanisms underlying the inhibitory effects of DAND5 on endothelial cells sprouting, we assessed the effects of DAND5 on endothelial cell migration and proliferation. […]
We exposed or not HUVECs to recombinant DAND5 and measured the concentration of free radicals using DCFDA and MitoSoxRed™. […]

[1] = system: retinal vessels and photoreceptors; assay type: in vivo, mouse
From the text: FIG. 4 is a panel with a schematic, images and bar graphs showing that chronic intravitreal injections of Dand5 inhibits developmental angiogenesis but is not detrimental to photoreceptor survival. FIG. 4A: Schematic representation of experimental set-up (B-E). Neonatal pups received intravitreal injections of either PBS, Dand5, Flt1-Fc on P1, P7 and P14. Retinas were harvested on P28. FIG. 4B: Isolectin B4 staining of flatmount retinas (P28) described in FIG. 3A. FIG. 4C: Quantification of branch points and vessel length in retinas described in FIG. 3B (n=6 mice/group; *p<0.05, **p<0.01). FIG. 4D: Immunofluorescent images of sectioned retinas described in FIG. 3A stained with antibodies against s-opsin and rhodopsin and DAPI (nuclei). FIG. 4E: Quantification of the number of nuclei present in the outer nuclear layer of retinas treated as described in (4A) (n=4, ns). Patients affected by ocular neovascular diseases such as retinopathy of prematurity (ROP) and wet AMD are typically treated with VEGF inhibitors to control pathological angiogenesis. […] Particularly, studies have shown that long-term treatment with VEGF inhibitors in mice leads to increased photoreceptor apoptosis and thinning of the neural retina (4). We therefore addressed the long-term effects of DAND5 on photoreceptors and the neural retina. […]

VEGF signaling = VEGF signaling and VEGF receptor levels in HUVECs (immunoblotting); assay type: cell-based, human
Protocol: FIG. 6A: HUVECs were grown in complete media were in the absence or presence of Dand5 or IWR1 for up to 24 hours. Protein extracts were analyzed by immunoblotting (representative image of n=3 experiments). FIG. 6C: HUVECs were grown in low serum media for 16 h in the absence or presence of 60 ng/mL of Dand5. VEGF signaling was induced by addition of 25 ng/mL of rhVEGF for up to 60 minutes. Protein extracts were analyzed by immunoblotting (representative image of n=3). FIG. 6D: Quantification of the mean gray value of phosphorylated proteins normalized to the mean gray value of β-Actin of immunoblots in FIG. 6C (n=3, ns). FIG. 6E: HUVECs were plated in the presence or absence of 60 ng/mL of Dand5. Proteins extracts were analyzed for expression of VEGF receptors (representative image of n=3).
Cells were washed with cold PBS and extracted in Laemmli's buffer, followed by sonication. Samples were run on SDS-PAGE gels and transferred onto nitrocellulose membranes. Membranes were blocked with 5% Bovine Serum Albumin (BSA) and probed with primary antibodies overnight at 4° C.: beta-Catenin (Cell Signaling Technology), phospho-beta-catenin (Cell Signaling Technology), Axin2 (Cell Signaling Technology), beta-Actin (Santa Cruz Technologies). HRP-conjugated secondary antibodies (Vector Laboratories) were used to detect primary antibodies.
HUVECs were starved overnight in the presence or absence of DAND5, followed by VEGF stimulation for up to 60 minutes. […] Likewise, VEGFR2 and VEGFR1 levels were unaffected upon HUVECs exposure to DAND5 for 0.5-24 h (FIG. 6 E, F).

[2] = system: human pluripotent stem cells / stem cell-derived human cones; test: Cone photoreceptor differentiation, maintenance and survival (earlier study and unpublished work); assay type: cell-based; details: in vitro, unpublished work
From the text: Inactivation of DAND5 in mice leads to multiple laterality and cardiovascular defects and a significant proportion of animals die perinatally. […] However, prior to the present invention, it was unknown that DAND5, or any of the six other members of the DAN family of BMP antagonists, could play a role in inhibiting and preventing ocular neovascularization and pathological angiogenesis.

[3] = system: human pluripotent stem cells / stem cell-derived human cones; details: cited from earlier work

VEGFR2 phosphorylation at Y1175 (VEGF signaling; HUVECs cultured in the presence of DAND5): unaffected
VEGFR2 and VEGFR1 levels (VEGF signaling; HUVECs exposed for 0.5-24 h): unaffected
B1: DAND5: human recombinant DAND5/COCO biologically active fragment produced in E. coli, predicted 18.2 kDa monomer, R&D systems 3047-CC-050 (protein)
chain: MRPEPQSPRPQSWAAANQTWALGPGALPPLVPASALGSWKAFLGLQKARQLGMGRLQRGQDEVAAVTLPLNPQEVIQGMCKAVPFVQVFSRPGCSAIRLRNHLCFGHCSSLYIPGSDPTPLVLCNSCMPARKRWAPVVLWCLTGSSASRRRVKISTMLIEGCHCSPKA
growth of choroidal explants (mouse choroidal explants): inhibited the growth of P5 mouse choroidal explants exposed to serum and VEGF
photoreceptor apoptosis (cleaved-caspase 3 staining) ([1]; mouse, in vivo): did not reveal significant apoptosis
retinal blood vessel formation / density of retinal vessels ([1]; repeated injections from P1 for 4 weeks): striking reduction in blood vessel formation
VEGF-induced phosphorylation of VEGF downstream effectors (VEGF signaling; HUVECs starved overnight with DAND5, VEGF stimulation up to 60 minutes): no significant decrease in VEGF-induced phosphorylation of VEGF downstream effectors
survival of stem cell-derived human cones [2]: displays pro-survival activities
cone photoreceptor differentiation and maintenance ([3]; recent study (16)): potent inducer of cone photoreceptor differentiation and maintenance
differentiation of human pluripotent stem cells into cone photoreceptors ([3]; reference (16)): can promote the differentiation of human pluripotent stem cells into cone photoreceptors
